B1: GPC3-derived peptide ALNLGIEVI (SEQ ID NO: 7) (peptide)
peptide: ALNLGIEVI
notes: Synthetic peptide; only the start position in GPC3 is printed
B2: GPC3-derived peptide SLQVTRIFL (SEQ ID NO: 4) (peptide)
peptide: SLQVTRIFL
notes: as for B1
B3: GPC3-derived peptide GYICSHSPV (SEQ ID NO: 6) (peptide)
peptide: GYICSHSPV
notes: as for B1
B4: GPC3-derived peptide SALDINECL (SEQ ID NO: 3) (peptide)
peptide: SALDINECL
notes: as for B1
B5: GPC3-derived peptide GMIKVKNQL (SEQ ID NO: 10) (peptide)
peptide: GMIKVKNQL
notes: as for B1
B6: GPC3-derived peptide LLQSASMEL (SEQ ID NO: 8) (peptide)
peptide: LLQSASMEL
notes: as for B1
B7: GPC3-derived peptide ARLNMEQLL (SEQ ID NO: 11) (peptide)
peptide: ARLNMEQLL
notes: as for B1
B8: GPC3-derived peptide KLTTTIGKL (SEQ ID NO: 9) (peptide)
peptide: KLTTTIGKL
notes: as for B1
B9: GPC3-derived peptide MVNELFDSL (SEQ ID NO: 1) (peptide)
peptide: MVNELFDSL
notes: Synthesized by Fmoc solid-phase method, purity 95% or more; the end is derived from the length of 9
B10: GPC3-derived peptide LFDSLFPVI (SEQ ID NO: 2) (peptide)
peptide: LFDSLFPVI
notes: as for B1

Legend:
[1] = molecular target: HLA-A*02:06 molecule (product of HLA-A*02:06 gene) on RA2.6 cells (human); test: flow cytometry, RA2.6 cells, peptide dilution series, BB7.2 staining
Procedure: First, the RA2.6 cells were cultured overnight at 26° C. to accumulate the HLA-A*02:06 molecules unbound to the peptide on the cell surface. Any of peptide dilution series was added thereto for binding at 26° C. for 60 minutes.
Subsequently, the mixture was cultured at 35° C. for 4 hours, resulting in the denaturation of the empty HLA-A*02:06 molecule unbound to the peptide and the loss of its steric structure. A fluorescent labeled monoclonal antibody, BB7.2, specifically recognizing a peptide-bound HLA-A*02:06 molecule, was added thereto, which was then incubated on ice for 20 minutes to stain the cells.
(§1) Thereafter, the amount of fluorescence per cell was measured using a flow cytometer, and the dissociation constant, Kd value, was calculated using a method as published in a paper by the present inventor (Udaka et al., Immunogenetics, 51, 816-828, 2000).

[2] = molecular target: T1, HLA-A*02:01 molecule (product of HLA-A*02:01 gene) on T2 cells (human); test: flow cytometry, T2 cells with added b2m, peptide dilution series, BB7.2 staining
T1 construct: MHC class I molecule on TAP-deficient T2 cells; stabilisation read with antibody BB7.2
Procedure: T2 cells and purified β2m were added to stepwise dilution series of a peptide whose binding capacity was to be measured, which was then incubated at 37° C. for 4 hours.
as §1

[3] = molecular target: T2, HLA-A*24:02 molecule (product of HLA-A*24:02 gene) on C1R-A24 cells (human); test: flow cytometry, acid-stripped C1R-A24 cells with added b2m, peptide dilution series, 17A12 staining
T2 construct: MHC class I molecule emptied of peptide; the peptide under test reassembles with heavy chain and added b2m; assembly stained with antibody 17A12
Procedure: First, C1R-A24 cells were exposed to acidic conditions of pH 3.3 for 30 seconds to dissociate and remove endogenous peptides which were originally bound to the HLA-A*24:02 molecule and a light chain, β2m, which was commonly associated with HLA class I molecules. After neutralization, purified β2m was added to the C1R-A24 cells, which was then added to peptide dilution series. The mixtures were each then incubated on ice for 4 hours. The 3-molecule assembly (MHC-pep) consisting of the HLA-A*24:02 molecule, the peptide, and β2 m which had been reasociated during the incubation was stained with a fluorescent labeled monoclonal antibody, 17A12, recognizing the assembly.
Subsequently, the number of MHC-pep's per C1R-A24 cell (which is proportional to the fluorescent intensity of the above fluorescent antibody) was quantitatively measured using a fluorescent cell analyzer, FACScan (Becton, Dickinson and Company). The binding dissociation constant, Kd value, between the HLA-A*24:02 molecule and the peptide was calculated from the average fluorescent intensity per cell using a method as published in a paper (Udaka et al., Immunogenetics, 51, 816-828, 2000) by the present inventor.

Binder	Binding Experiment Data (log Kd) [1]	Binding Experiment Data (log Kd) [2]	Binding Experiment Data (log Kd) [3]
B1	-4.16 log Kd (concentration unit not printed)	-5.92 log Kd (concentration unit not printed)	-3.96 log Kd (concentration unit not printed)
B2	-5.21 log Kd (concentration unit not printed)	-6.21 log Kd (concentration unit not printed)	-5.34 log Kd (concentration unit not printed)
B3	–	–	-6.55 log Kd (concentration unit not printed)
B4	-6.32 log Kd (concentration unit not printed)	–	–
B5	-3.36 log Kd (concentration unit not printed)	-4.76 log Kd (concentration unit not printed)	-6.9 log Kd (concentration unit not printed)
B6	-5.88 log Kd (concentration unit not printed)	-6.14 log Kd (concentration unit not printed)	-5.49 log Kd (concentration unit not printed)
B7	-2.76 log Kd (concentration unit not printed)	-3.84 log Kd (concentration unit not printed)	-5.2 log Kd (concentration unit not printed)
B8	-5.03 log Kd (concentration unit not printed)	-4.97 log Kd (concentration unit not printed)	-5.21 log Kd (concentration unit not printed)
B9	-6.14 log Kd (concentration unit not printed)	-5.31 log Kd (concentration unit not printed)	-4.7 log Kd (concentration unit not printed)
B10	–	-5.07 log Kd (concentration unit not printed)	-7.43 log Kd (concentration unit not printed)
